# Source: patent publication US7867500B2, “Cofactor that modulates steroid receptor activities” (The United States of America as represented by the …, priority 2004, dated 2011)
# T1: TIF2.4 (Homo sapiens, UniProt Q15596)
# T1 sequence (Q15596 624-1010 limits assumed): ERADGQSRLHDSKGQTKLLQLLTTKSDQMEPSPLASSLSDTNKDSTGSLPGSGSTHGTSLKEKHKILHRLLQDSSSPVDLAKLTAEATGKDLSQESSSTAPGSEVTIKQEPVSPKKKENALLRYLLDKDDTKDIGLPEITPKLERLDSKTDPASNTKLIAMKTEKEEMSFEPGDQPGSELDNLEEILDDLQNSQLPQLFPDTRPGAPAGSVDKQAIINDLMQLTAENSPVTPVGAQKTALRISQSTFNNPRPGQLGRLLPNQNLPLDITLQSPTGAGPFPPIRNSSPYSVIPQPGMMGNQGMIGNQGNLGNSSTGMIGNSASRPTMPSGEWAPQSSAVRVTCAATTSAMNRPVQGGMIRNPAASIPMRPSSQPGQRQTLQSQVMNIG
# T2: glucocorticoid receptor (GR) (Rattus norvegicus, UniProt P06536)
# T2 construct: made in house; host or cells: cell-free coupled transcription/translation (Promega TNT SP6); the GST partner was made in E. coli BL21
# T2 sequence (P06536 1-795): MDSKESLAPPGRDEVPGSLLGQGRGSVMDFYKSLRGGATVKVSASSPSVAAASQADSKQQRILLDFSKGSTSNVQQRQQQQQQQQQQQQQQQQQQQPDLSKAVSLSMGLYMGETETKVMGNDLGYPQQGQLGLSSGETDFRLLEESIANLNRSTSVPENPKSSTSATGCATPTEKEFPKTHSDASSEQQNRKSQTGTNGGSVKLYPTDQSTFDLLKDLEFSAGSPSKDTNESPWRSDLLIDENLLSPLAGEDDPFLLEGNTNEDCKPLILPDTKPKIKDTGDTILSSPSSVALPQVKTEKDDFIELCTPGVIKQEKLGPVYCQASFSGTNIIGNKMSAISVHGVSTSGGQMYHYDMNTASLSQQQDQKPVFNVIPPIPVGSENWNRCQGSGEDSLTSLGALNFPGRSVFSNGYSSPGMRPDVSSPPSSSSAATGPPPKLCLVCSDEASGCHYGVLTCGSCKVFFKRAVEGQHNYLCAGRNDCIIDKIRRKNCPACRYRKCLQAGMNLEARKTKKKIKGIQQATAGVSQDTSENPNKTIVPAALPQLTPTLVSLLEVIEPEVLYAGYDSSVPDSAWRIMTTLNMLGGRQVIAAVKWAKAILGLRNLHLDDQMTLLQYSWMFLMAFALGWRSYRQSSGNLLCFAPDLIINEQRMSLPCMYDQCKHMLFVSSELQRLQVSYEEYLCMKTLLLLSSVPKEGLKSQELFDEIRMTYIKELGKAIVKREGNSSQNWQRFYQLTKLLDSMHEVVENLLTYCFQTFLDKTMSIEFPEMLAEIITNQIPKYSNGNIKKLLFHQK
# T2 sequence (Q6EMB2 960-1281 F1267S partner limits assumed): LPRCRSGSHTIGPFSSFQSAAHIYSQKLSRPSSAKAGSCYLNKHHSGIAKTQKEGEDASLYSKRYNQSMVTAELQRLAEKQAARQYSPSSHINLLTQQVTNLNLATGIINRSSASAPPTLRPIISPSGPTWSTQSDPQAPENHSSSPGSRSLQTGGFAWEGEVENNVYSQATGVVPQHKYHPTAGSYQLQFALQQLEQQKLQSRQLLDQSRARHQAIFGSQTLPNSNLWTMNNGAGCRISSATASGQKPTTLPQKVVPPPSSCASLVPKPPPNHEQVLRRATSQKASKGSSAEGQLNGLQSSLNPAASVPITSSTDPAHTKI
# Experiments:
# STAMP = biological target: T3, STAMP (Homo sapiens, UniProt Q6EMB2); experiment: siRNA assay: fold repression by GR of AP-1/Luc reporter in U2OS.rGR cells; type: cell-based; settings: 500 ng siRNA, without HA/STAMP plasmid
# T3 construct: Indirect immunofluorescence, using HA-tagged full-length STAMP; expressed in transfected cells; host or cells: U2OS.rGR
# Method: U2OS.rGR cells were transiently transfected with (FIG. 5E) or without (FIG. 5F) HA/STAMP plasmid (100 ng) and ±500 ng of STAMP siRNA, or β-actin siRNA, plus AP-1/Luc reporter (20 ng) and the Renilla control (10 ng) plasmid. The cells were processed and the fold repression with each treatment was calculated as described in FIG. 5A. The average values were then plotted (±S.E.M., n=4-5 (FIG. 5D) and 7 (FIG. 5E); *, P≦0.032; **, P=0.0022).
# Four different siRNA oligonucleotides for STAMP were designed and synthesized by Qiagen:
# A control β-actin siRNA was also purchased from Qiagen. U2OS.rGR cells were seeded at 50,000 cells per well in 24 wells plate the day before transfection. DNA (STAMP plasmid and AP-1/Luc reporter; total=150 ng) together with 500 ng siRNA were mixed with 1.6 μl Lipofectamine 2000 (Invitrogen), allowed to stand at room temperature for 15 min, and then added to FBS-free DMEM pre-washed cells. Four hours later, the cells were re-fed with DMEM/10% FBS (containing G418), allowed to recover for 2 h, and re-fed with DMEM/10% FBS (containing G418) containing appropriate hormone dilutions±PMA. The cells were harvested and Luciferase activity was determined as described above in the standard transient transfection studies.
# TIF2.4 [1] = biological target: T1, TIF2.4; experiment: Cell-free pulldown of [35S]-labeled STAMP constructs by GST/TIF2.4; type: binding; settings: compared with GST itself
# Excerpt: (§1) FIGS. 7A and 7B illustrate the domains of STAMP that bind to TIF2.4 (FIG. 7A) and GR (FIG. 7B) in cell-free pulldown assays. Bacterially expressed GST-chimeras (GST/TIF2.4 in FIG. 7A and GST/STAMP segments in FIG. 7B) were immobilized on glutathione-Sepharose beads. The [^35S]methionine labeled STAMP fragments (FIG. 7A) or wild type GR (FIG. 7B) that were retained on the matrix by binding to the GST chimeras were separated on SDS PAGE gels and visualized by autoradiography. Specific binding was seen as when the GST/TIF2.4 or GST/STAMP bands were darker than the GST control bands. […] Similar results were obtained in a second experiment.
# (§2) Template DNA plasmids (1 μg), 40 μl of Promega TNT (SP6) quick coupled transcription/translation system master mixture, and 2 μl of [^35S]methionine (Amersham Biosciences) were brought up to a total volume of 50 μl with H2O and incubated at 30° C. for 90 min according to the manufacturer's (Promega) recommendations. If hormone stimulation is needed, hormones (Dex, etc) were added into the transcription-translation reaction during the 30° C. incubation to both increase the stability of the synthesized GR and to cause activation of the GR-steroid complexes.
# These assays were conducted generally as described (He et al., 2002). Sonicated bacterial lysates (1 ml) containing overexpressed GST, GST/TIF2.4, or GST/STAMP-956C were incubated with 160 μl of glutathione-Sepharose 4B beads for 1 hr at 0° C. The mixture was centrifuged (12,000×g), the supernatant was discarded, and the pellet was washed with phosphate-buffered saline (3×1 ml). Each 20-μl sample of immobilized GST or GST-chimera was then incubated overnight with 10 μl of ^35S-labeled in vitro translation product. The matrix was washed with phosphate-buffered saline (4×1 ml). The immobilized proteins were removed from the beads by heating at 90° C. for 5 min in 20 μl of 2×SDS loading buffer. The proteins were separated on 8-10% SDS-PAGE gels and detected by radio-autoradiography.
# TIF2.4 [2] = biological target: T1, TIF2.4; experiment: Mammalian two-hybrid assay in CV-1 cells (pFRLuc reporter) with TIF2.4; type: cell-based; parameters: expressed in transfected cells; host or cells: CV-1
# Excerpt: FIG. 2A-2C illustrate the isolation and characterization of the partial clone of the protein that binds to TIF2.4. […] Five clones were obtained but only two (clones I and V) contained a protein that was needed for colony growth in the presence of the pSos/TIF2.4 fusion protein. After initial screening, only clone I (also named 6-6CL1) was selected for further investigation. FIG. 2B and FIG. 2C illustrate the selectivity of 6-6CL1 interactions with TIF2.4 in mammalian two-hybrid assays. Triplicate samples of CV-1 cells in 24-well plates were transiently transfected with the indicated GAL-DBD and VP16-AD plasmids along with the GAL4-regulated reporter, pFRLuc. The relative luciferase activity, normalized for the activity of the internal Renilla control, was determined and plotted as the average±S.D. The much lower activity of GAL/TIF2.4m123 was previously shown not to be due to unequal levels of protein expression (He et al., 2002). Similar results were obtained in three additional experiments. FIG. 2D and FIG. 2E provide a comparison of binding to 6-6CL1 by similarly positioned domains of SRC-1 and TIF2. Triplicate samples of CV-1 cells in 24-well plates were analyzed as in (B&C) after being transiently transfected with GAL±6-6CL1 constructs and pFRLuc reporter along with VP16 chimeras of SRC-1 (FIG. 2D) or TIF2 (FIG. 2E) segments. Similar results for SRC-1 were obtained in two additional experiments (ND=not determined). Western blots (FIG. 2F) indicate that the low activity of TIF2(1140C) (see FIG. 1) is not due to inadequate protein expression.
# FIGS. 6A and 6B illustrate the domains of STAMP that interact with TIF2.4 (FIG. 6A) and GR (FIG. 6B) in the mammalian two-hybrid assay. […] These CV-1 cells were also transfected with GAL fused to the indicated segments of STAMP along with the FRLuc reporter and Renilla control plasmids. After determining the relative luciferase activities as described in FIG. 2B and 2C, the average values±S.E.M. from 2-5 experiments were plotted. The average fold increase for VP16/TIF2.4 with GAL/STAMP(623-834) in FIG. 6A was 11.0±3.0 (SEM, n=5) above the VP16 control. The values in parentheses above the data bars in FIG. 6B indicate the fold increased interaction ±1 μM Dex.
# These assays were conducted as described (He et al., 2002). In particular, the recommended procedure for the Mammalian Matchmaker two-hybrid assay kit (Clontech) was modified slightly by changing from a chloramphenicol acetyltransferase reporter to a Luciferase Reporter pFRLuc (Stratagene), which is under the control of five repeats of the upstream activating sequence for the binding of GAL4.
# [3] = biological target: T2, glucocorticoid receptor (GR); experiment: Cell-free pulldown of [35S]-labeled GR by GST/STAMP segment; type: binding; settings: with and without steroid
# Excerpt: as §1, §2
# These assays were conducted generally as described (He et al., 2002). […] The proteins were separated on 8-10% SDS-PAGE gels and detected by radio-autoradiography.
# T3 sequence (Q6EMB2 5-1281 A149V/F1267S limits assumed): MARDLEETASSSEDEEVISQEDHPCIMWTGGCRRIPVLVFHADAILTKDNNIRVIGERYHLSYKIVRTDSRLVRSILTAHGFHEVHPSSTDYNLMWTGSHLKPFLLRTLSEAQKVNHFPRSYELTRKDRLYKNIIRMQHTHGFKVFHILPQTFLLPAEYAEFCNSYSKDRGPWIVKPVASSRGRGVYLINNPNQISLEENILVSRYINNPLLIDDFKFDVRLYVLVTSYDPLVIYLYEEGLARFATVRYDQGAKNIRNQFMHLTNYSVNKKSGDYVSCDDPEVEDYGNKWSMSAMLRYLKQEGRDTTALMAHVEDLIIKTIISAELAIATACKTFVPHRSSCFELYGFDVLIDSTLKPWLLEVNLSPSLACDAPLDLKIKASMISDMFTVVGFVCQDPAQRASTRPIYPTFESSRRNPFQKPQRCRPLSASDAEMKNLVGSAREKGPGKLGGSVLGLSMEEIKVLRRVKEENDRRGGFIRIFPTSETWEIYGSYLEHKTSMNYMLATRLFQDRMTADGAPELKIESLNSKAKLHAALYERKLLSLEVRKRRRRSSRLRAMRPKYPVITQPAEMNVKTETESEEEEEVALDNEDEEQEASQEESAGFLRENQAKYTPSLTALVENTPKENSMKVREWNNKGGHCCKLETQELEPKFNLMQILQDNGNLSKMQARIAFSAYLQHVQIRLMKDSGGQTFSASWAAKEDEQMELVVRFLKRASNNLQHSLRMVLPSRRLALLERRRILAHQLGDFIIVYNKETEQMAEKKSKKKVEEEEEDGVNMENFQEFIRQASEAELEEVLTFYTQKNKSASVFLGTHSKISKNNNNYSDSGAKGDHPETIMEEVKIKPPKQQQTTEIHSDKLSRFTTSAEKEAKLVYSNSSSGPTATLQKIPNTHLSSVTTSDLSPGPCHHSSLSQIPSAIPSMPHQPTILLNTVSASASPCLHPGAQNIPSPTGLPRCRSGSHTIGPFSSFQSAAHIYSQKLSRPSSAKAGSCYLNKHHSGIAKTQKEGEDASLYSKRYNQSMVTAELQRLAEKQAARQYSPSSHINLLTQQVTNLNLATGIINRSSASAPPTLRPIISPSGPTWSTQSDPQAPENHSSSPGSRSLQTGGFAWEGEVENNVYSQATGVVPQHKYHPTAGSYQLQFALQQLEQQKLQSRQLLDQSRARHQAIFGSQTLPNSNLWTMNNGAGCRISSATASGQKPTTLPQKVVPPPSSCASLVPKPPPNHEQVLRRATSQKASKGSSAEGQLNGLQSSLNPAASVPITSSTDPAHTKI
molecule,measurement,setting,value
"CAGCACTGACTATAACCTAAT (chemistry not given here) [STAMP siRNA #3, siRNA oligonucleotide for STAMP synthesized by Qiagen]",repressive activity of GR-agonist complexes (endogenous STAMP),STAMP,can reduce the repressive activity of GR-agonist complexes
"GAGGGCAATGAGGCCAAAATA (chemistry not given here) [STAMP siRNA #4, siRNA oligonucleotide for STAMP synthesized by Qiagen]",repressive activity of GR-agonist complexes (endogenous STAMP),STAMP,can reduce the repressive activity of GR-agonist complexes
"N623: STAMP fragment amino acids 1-623, TTL domain but not the CID region (protein, GAL4 DBD fusion, STAMP fragment amino acids 1-623, TTL domain but not the CID region) MARDLEETASSSEDEEVISQEDHPCIMWTGGCRRIPVLVFHADAILTKDNNIRVIGERYHLSYKIVRTDSRLVRSILTAHGFHEVHPSSTDYNLMWTGSHLKPFLLRTLSEAQKVNHFPRSYELTRKDRLYKNIIRMQHTHGFKVFHILPQTFLLPAEYAEFCNSYSKDRGPWIVKPVASSRGRGVYLINNPNQISLEENILVSRYINNPLLIDDFKFDVRLYVLVTSYDPLVIYLYEEGLARFATVRYDQGAKNIRNQFMHLTNYSVNKKSGDYVSCDDPEVEDYGNKWSMSAMLRYLKQEGRDTTALMAHVEDLIIKTIISAELAIATACKTFVPHRSSCFELYGFDVLIDSTLKPWLLEVNLSPSLACDAPLDLKIKASMISDMFTVVGFVCQDPAQRASTRPIYPTFESSRRNPFQKPQRCRPLSASDAEMKNLVGSAREKGPGKLGGSVLGLSMEEIKVLRRVKEENDRRGGFIRIFPTSETWEIYGSYLEHKTSMNYMLATRLFQDRMTADGAPELKIESLNSKAKLHAALYERKLLSLEVRKRRRRSSRLRAMRPKYPVITQPAEMNVKTETESEEEEEVALDNEDEEQEASQEESAGFLRENQAKYTPSLTALVE",binding to GST/TIF2.4,TIF2.4 [1],neither the amino terminal (N623) nor the C-terminal (834C) fragments exhibit significantly more binding to GST/TIF2.4 than to GST itself
same,interaction with TIF2.4,TIF2.4 [2],weak response
"GST/STAMP(956C): GST chimera of STAMP fragment amino acids 956 to 1277 (protein, GST fusion) LPRCRSGSHTIGPFSSFQSAAHIYSQKLSRPSSAKAGSCYLNKHHSGIAKTQKEGEDASLYSKRYNQSMVTAELQRLAEKQAARQYSPSSHINLLTQQVTNLNLATGIINRSSASAPPTLRPIISPSGPTWSTQSDPQAPENHSSSPGSRSLQTGGFAWEGEVENNVYSQATGVVPQHKYHPTAGSYQLQFALQQLEQQKLQSRQLLDQSRARHQAIFGSQTLPNSNLWTMNNGAGCRISSATASGQKPTTLPQKVVPPPSSCASLVPKPPPNHEQVLRRATSQKASKGSSAEGQLNGLQSSLNPAASVPITSSTDPAHTKI",binding of full length GR,[3],this binding is steroid-independent
